Test [1] deals with T1, EphA2-Ephrin A1-Fc complex (Homo sapiens, UniProt P29317).
T1 construct: consisting of the extracellular domain of EphA2 linked to human IgG1 constant region
The test is described as follows: Binding of biotinylated protein to EphA2-Ephrin A1-Fc complex on microtiter plate. The note with it: FIG. 18A. As for the experimental part: FIGS. 18A-18B: EphA2 EA2 epitope is distinct from Eph099B-233.152 epitope and ligand binding site. (A) EphA2-Fc was incubated with and bound to immobilized Ephrin A1-Fc. Labeled Ephrin A1-Fc (black), EA2 (white) or Eph099B-233.152 (grey) was incubated with the EphA2-Ephrin A1-Fc complex and amount of binding was measured. (B) EphA2-Fc was incubated with and bound to immobilized Ephrin A1-Fc. Labeled EA2 was then incubated with the EphA2-Ephrin A1 complex. Unlabeled competitor was incubated with EphA2-Ephrin A1-EA2 complex in the indicated amount. Competitors were Ephrin A1-Fc (black), EA2 (white) or Eph099B-233.152 (grey).
A microtiter plate was coated with […] Ephrin A1-Fc overnight at 4° C. A fusion protein consisting of the extracellular domain of EphA2 linked to human IgG1 constant region (EphA2-Fc) was incubated with and bound to the immobilized Ephrin A1-Fc. Biotinylated Ephrin A1-Fc, EA2, or Eph099B-233.152 was incubated with the EphA2-Ephrin A1-Fc complex and amount of binding was measured.

In test [2] the test system is A549 lung cancer cells implanted subcutaneously. The test is described as follows: Tumor growth in vivo, A549 implanted subcutaneously. To be noted: 6mg/kg intraperitoneally twice a week for 3 weeks; versus PBS or 1A7. The arrangement: species or system athymic mice. As for the experimental part: FIGS. 7A-7D: The EphA2 antibodies, EA2, Eph099B-208.261, and Eph099B-233.152, inhibit tumor cell growth in vivo. MDA-MB-231 breast cancer cells were implanted (A) orthotopically or (B) subcutaneously into athymic mice. (C) A549 lung cancer cells were implanted subcutaneously into athymic mice. After the tumors had grown to an average volume of 100 mm^3, mice were administered 6 mg/kg of the indicated antibody or negative control (PBS or 1A7 antibody) intraperitoneally twice a week for 3 weeks. Tumor growth was assessed and expressed as a ratio of the tumor volume divided by initial tumor volume (100 mm^3). (D) MDA-MB-231 breast cancer cells were implanted subcutaneously into athymic mice. After the tumors had grown to an average volume of 100 mm^3, mice were administered 6 mg/kg of the indicated antibody or negative control intraperitoneally twice a week for 3 weeks. Total tumor volume was determined after sacrifice. Negative control is black, EA2 is white, Eph099B-208.261 is dark grey, and Eph099B-233.152 is light grey.
5×10^6MDA-MB-231 breast cancer cells were implanted orthotopically or subcutaneously and 5×10^6 A549 lung cancer cells were implanted subcutaneously into athymic mice. […] Tumor growth was assessed and expressed either as a ratio of the tumor volume divided by initial tumor volume (100 mm^3) or as total tumor volume. […]

For test [3], the system named is malignant MDA-MB-231 tumor cells. The test is described as follows: Inhibition of colony formation in soft agar. The note with it: MDA-MB-231, single dose 5 μg/ml, 37° C. In kind it is cell-based. On the procedure: FIG. 5: EphA2 antibodies inhibit malignant tumor cell growth in soft agar. A single dose of 5 μg/ml of Eph099B-208.261 (black bar), EA2 (white bar) purified EphA2 antibodies or a negative control antibody, 1A7 (gray bar) were incubated with malignant MDA-MB-231 tumor cells for the indicated time at 37° C. in soft agar. Results are reported as colonies per high-powered field (HPF).
The ability of the antibodies of the invention to inhibit cancer cell formation in soft agar was assayed as described in Zelinski et al. (2001, Cancer Res. 61:2301-6). Briefly, cells were suspended in soft agar for 7 days at 37° C. in the presence of purified antibody or control solution (PBS). Antibodies were administered at the time of suspension in both bottom and top agar solutions. Colony formation was scored microscopically using an Olympus CK-3 inverted phase-contrast microscope outfitted with a 40× objective. Clusters containing at least three cells were scored as a positive.

Here are results for three molecules from patent publication US20100278838A1, “EPHA2 MONOCLONAL ANTIBODIES AND METHODS OF USE THEREOF” (MEDIMMUNE, LLC, priority 2002, published 2010).

T1 sequence (P29317 24-537 limits assumed): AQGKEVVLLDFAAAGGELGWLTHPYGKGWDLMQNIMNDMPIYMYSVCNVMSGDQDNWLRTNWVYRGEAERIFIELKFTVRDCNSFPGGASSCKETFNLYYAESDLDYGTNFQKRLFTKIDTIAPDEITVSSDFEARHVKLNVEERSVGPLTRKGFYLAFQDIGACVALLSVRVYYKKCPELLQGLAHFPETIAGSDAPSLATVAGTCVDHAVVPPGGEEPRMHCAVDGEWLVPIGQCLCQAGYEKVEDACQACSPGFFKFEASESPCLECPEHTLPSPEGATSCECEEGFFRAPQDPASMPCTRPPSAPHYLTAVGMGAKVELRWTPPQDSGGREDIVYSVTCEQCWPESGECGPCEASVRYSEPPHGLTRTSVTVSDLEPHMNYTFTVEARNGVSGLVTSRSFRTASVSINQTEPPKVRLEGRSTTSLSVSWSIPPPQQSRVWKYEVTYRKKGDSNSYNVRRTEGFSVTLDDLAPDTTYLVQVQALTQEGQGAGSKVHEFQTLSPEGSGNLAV
T1 sequence (P20827 19-182 partner limits assumed): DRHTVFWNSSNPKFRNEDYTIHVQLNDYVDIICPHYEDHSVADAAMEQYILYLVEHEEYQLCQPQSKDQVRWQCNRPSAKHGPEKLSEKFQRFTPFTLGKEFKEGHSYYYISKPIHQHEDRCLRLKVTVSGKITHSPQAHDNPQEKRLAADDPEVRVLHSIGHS

B1: Eph099B-233.152: EphA2 monoclonal antibody; hybridoma ATCC PTA-5194; VL SEQ ID NO:17, VH SEQ ID NO:21 (antibody, listed as Homo sapiens, V domains shown)
VH: EVKLVESGGGLVQPGGSLSLSCAASGFTFTDYSMNWVRQPPGKALEWLGFIRNKANDYTTEYSASVKGRFTISRDNSQSILYLQMNALRAEDSATYYCVRYPRYHAMDSWGQGTSVTVSS
VL: DIVLTQSPATLSVTPGDSVNLSCRASQSISNNLHWYQQKSHESPRLLIKYVFQSISGIPSRFSGSGSGTDFTLSINSVETEDFGMYFCQQSNSWPLTFGAGTKLELK
With B1, the “Amount of binding to EphA2-Ephrin A1-Fc complex” value in test [1] is “considerable levels”.

B2: Eph099B-208.261: EphA2 monoclonal antibody; hybridoma ATCC PTA-4573; VL SEQ ID NO:1, VH SEQ ID NO:5 (antibody, listed as Homo sapiens, V domains shown)
VH: QVQLQQPGAELVKPGASVKLSCKASGYTFTSYWMHWVKQRPGQGLEWIGMIHPNSGSTNYNEKFKSKATLTVDKSSSTAYMRLSSLTSEDSAVYYCARGGNMVGGGYWGQGTTLTVSS
VL: QIVLTQSPALMSASPGEKVTMTCSASSSVSYMYWYQQKPRSSPKPWIYLTTNLASGVPARFSGSGSGTSYSLTISSMEAEDAATYYCQQWSSNPFTFGSGTKLEIR
For B2, the “Growth of A549 cells implanted subcutaneously” value in test [2] is listed as “inhibited”. For the same molecule, in test [3], the “Colony growth in soft agar” value is “inhibited colony growth in soft agar”.

B3: EA2: EphA2 agonistic monoclonal antibody; ATCC deposit no. PTA-4380; co-pending application Ser. No. 10/436,783; VL SEQ ID NO:33, VH SEQ ID NO:37 (antibody, listed as Homo Sapiens, V domains shown)
VH: DVKLVESGGGLVKPGGSLKLSCAASGFTFSSYTMSWVRQTPEKRLEWVATISSGGTYTYYPDSVKGRFTISRDNAKNTLYLQMSSLKSEDTAMYYCTREAIFTYWGQGTLVTVSA
VL: DIKMTQSPSSMYASLGERVTITCKASQDINNYLSWFQQKPGKSPKTLIYRANRLVDGVPSRFSGSGSGQDYSLTISSLEYEDMGIYYCLKYDEFPYTFGGGTKLEIK
Regarding B3, the “Amount of binding to EphA2-Ephrin A1-Fc complex” value in test [1] is “considerable levels”. Further, the “Growth of A549 cells implanted subcutaneously” value in test [2] is reported as “inhibited”. Besides, the “Colony growth in soft agar” value in test [3] is “inhibited colony growth in soft agar”.
